B1: WW domain-containing transcription regulator protein 1, residues 116 to 162; numbered along this chain, Q9GZV5 (parent)
chain: QSYDVTDELPLPPGWEMTFTATGQRYFLNHIEKITTWQDPRKAMNQP
B2: SH3 and PX domain-containing protein 2B, residues 155 to 209; numbered along this chain, A1X283 (parent)
chain: EQYVVVANYQKQESSEISLSVGQVVDIIEKNESGWWFVSTAEEQGWVPATCLEGQ

± gives the uncertainty stated by the source.

Variants of B1 are the subject of one data set. In words: abundance fitness (aPCA) (normalised: wild type 0, dead -1); higher = more abundant; growth selection in yeast, the domain comes from the species named. To be noted: Homo sapiens.
For the variant A43P, the abundance fitness is -0.014 ± 0.031.

Another data set covers variants of B2. The data set is described as above. The note with it: Homo sapiens.
Turning to EQHVVVANYQKQESSEISLSVGQVVDIIEKNESGWWFVSTAEEQGWVPATCLEGQ, the abundance fitness was -0.537 ± 0.17.

EQLVVVANYQKQESSEISLSVGQVVDIIEKNESGWWFVSTAEEQGWVPATCLEGQ: the abundance fitness is -0.237 ± 0.077.

For EQSVVVANYQKQESSEISLSVGQVVDIIEKNESGWWFVSTAEEQGWVPATCLEGQ, the abundance fitness came to 0.039 ± 0.093.

With EQVVVVANYQKQESSEISLSVGQVVDIIEKNESGWWFVSTAEEQGWVPATCLEGQ, the abundance fitness is -0.073 ± 0.081.

Consider EQPVVVANYQKQESSEISLSVGQVVDIIEKNESGWWFVSTAEEQGWVPATCLEGQ, for which the abundance fitness was -0.585 ± 0.18.

Take EQNVVVANYQKQESSEISLSVGQVVDIIEKNESGWWFVSTAEEQGWVPATCLEGQ: the abundance fitness was -0.268 ± 0.13.

With EQQVVVANYQKQESSEISLSVGQVVDIIEKNESGWWFVSTAEEQGWVPATCLEGQ, the abundance fitness was -0.17 ± 0.13.

Regarding EQKVVVANYQKQESSEISLSVGQVVDIIEKNESGWWFVSTAEEQGWVPATCLEGQ, the abundance fitness was -0.035 ± 0.15.

Turning to EQCVVVANYQKQESSEISLSVGQVVDIIEKNESGWWFVSTAEEQGWVPATCLEGQ, the abundance fitness is -0.349 ± 0.14.

With EQWVVVANYQKQESSEISLSVGQVVDIIEKNESGWWFVSTAEEQGWVPATCLEGQ, the abundance fitness was -0.324 ± 0.12.

Take EQEVVVANYQKQESSEISLSVGQVVDIIEKNESGWWFVSTAEEQGWVPATCLEGQ: the abundance fitness was -0.114 ± 0.15.

As to EQTVVVANYQKQESSEISLSVGQVVDIIEKNESGWWFVSTAEEQGWVPATCLEGQ, the abundance fitness is -0.06 ± 0.11.

As to EQAVVVANYQKQESSEISLSVGQVVDIIEKNESGWWFVSTAEEQGWVPATCLEGQ, the abundance fitness stood at 0.106 ± 0.095.

In the case of EQGVVVANYQKQESSEISLSVGQVVDIIEKNESGWWFVSTAEEQGWVPATCLEGQ, the abundance fitness was 0.003 ± 0.074.

On to EQRVVVANYQKQESSEISLSVGQVVDIIEKNESGWWFVSTAEEQGWVPATCLEGQ, for which the abundance fitness is -0.127 ± 0.067.

As to EQDVVVANYQKQESSEISLSVGQVVDIIEKNESGWWFVSTAEEQGWVPATCLEGQ, the abundance fitness was -0.162 ± 0.2.

On to EQFVVVANYQKQESSEISLSVGQVVDIIEKNESGWWFVSTAEEQGWVPATCLEGQ, for which the abundance fitness is -0.053 ± 0.13.

Take EQIVVVANYQKQESSEISLSVGQVVDIIEKNESGWWFVSTAEEQGWVPATCLEGQ: the abundance fitness is -0.175 ± 0.13.

As to VQYVVVANYQKQESSEISLSVGQVVDIIEKNESGWWFVSTAEEQGWVPATCLEGQ, the abundance fitness was -0.035 ± 0.076.

Turning to RQYVVVANYQKQESSEISLSVGQVVDIIEKNESGWWFVSTAEEQGWVPATCLEGQ, the abundance fitness was -0.469 ± 0.19.

LQYVVVANYQKQESSEISLSVGQVVDIIEKNESGWWFVSTAEEQGWVPATCLEGQ: the abundance fitness was -0.001 ± 0.14.

For SQYVVVANYQKQESSEISLSVGQVVDIIEKNESGWWFVSTAEEQGWVPATCLEGQ, the abundance fitness was -0.177 ± 0.31.

With GQYVVVANYQKQESSEISLSVGQVVDIIEKNESGWWFVSTAEEQGWVPATCLEGQ, the abundance fitness was -0.315 ± 0.098.

Consider IQYVVVANYQKQESSEISLSVGQVVDIIEKNESGWWFVSTAEEQGWVPATCLEGQ, for which the abundance fitness is -0.299 ± 0.33.

Regarding MQYVVVANYQKQESSEISLSVGQVVDIIEKNESGWWFVSTAEEQGWVPATCLEGQ, the abundance fitness was -0.329 ± 0.24.

Turning to KQYVVVANYQKQESSEISLSVGQVVDIIEKNESGWWFVSTAEEQGWVPATCLEGQ, the abundance fitness is 0.042 ± 0.16.

With AQYVVVANYQKQESSEISLSVGQVVDIIEKNESGWWFVSTAEEQGWVPATCLEGQ, the abundance fitness was -0.364 ± 0.17.

For the variant DQYVVVANYQKQESSEISLSVGQVVDIIEKNESGWWFVSTAEEQGWVPATCLEGQ, the abundance fitness was -0.108 ± 0.14.

Regarding EQYVEVANYQKQESSEISLSVGQVVDIIEKNESGWWFVSTAEEQGWVPATCLEGQ, the abundance fitness was -0.939 ± 0.23.

Take EQYVKVANYQKQESSEISLSVGQVVDIIEKNESGWWFVSTAEEQGWVPATCLEGQ: the abundance fitness is -0.552 ± 0.35.

As for EQYVIVANYQKQESSEISLSVGQVVDIIEKNESGWWFVSTAEEQGWVPATCLEGQ, the abundance fitness was -0.379 ± 0.14.

As to EQYVGVANYQKQESSEISLSVGQVVDIIEKNESGWWFVSTAEEQGWVPATCLEGQ, the abundance fitness was -0.37 ± 0.064.

For the variant EQYVDVANYQKQESSEISLSVGQVVDIIEKNESGWWFVSTAEEQGWVPATCLEGQ, the abundance fitness was -0.999 ± 0.2.

EQYVHVANYQKQESSEISLSVGQVVDIIEKNESGWWFVSTAEEQGWVPATCLEGQ: the abundance fitness is -1.08 ± 0.31.

Turning to EQYVFVANYQKQESSEISLSVGQVVDIIEKNESGWWFVSTAEEQGWVPATCLEGQ, the abundance fitness is -0.875 ± 0.2.

As to EQYVNVANYQKQESSEISLSVGQVVDIIEKNESGWWFVSTAEEQGWVPATCLEGQ, the abundance fitness was -0.946 ± 0.27.

Take EQYVLVANYQKQESSEISLSVGQVVDIIEKNESGWWFVSTAEEQGWVPATCLEGQ: the abundance fitness is -0.919 ± 0.12.

EQYVMVANYQKQESSEISLSVGQVVDIIEKNESGWWFVSTAEEQGWVPATCLEGQ: the abundance fitness is -0.418 ± 0.15.

Turning to EQYVCVANYQKQESSEISLSVGQVVDIIEKNESGWWFVSTAEEQGWVPATCLEGQ, the abundance fitness is -0.108 ± 0.12.

As to ENYVVVANYQKQESSEISLSVGQVVDIIEKNESGWWFVSTAEEQGWVPATCLEGQ, the abundance fitness was determined as 0.13 ± 0.25.

Regarding EHYVVVANYQKQESSEISLSVGQVVDIIEKNESGWWFVSTAEEQGWVPATCLEGQ, the abundance fitness was -0.178 ± 0.35.

Regarding EYYVVVANYQKQESSEISLSVGQVVDIIEKNESGWWFVSTAEEQGWVPATCLEGQ, the abundance fitness was -0.29 ± 0.39.

EPYVVVANYQKQESSEISLSVGQVVDIIEKNESGWWFVSTAEEQGWVPATCLEGQ: the abundance fitness is -0.068 ± 0.12.

In the case of EFYVVVANYQKQESSEISLSVGQVVDIIEKNESGWWFVSTAEEQGWVPATCLEGQ, the abundance fitness is -0.185 ± 0.47.

Consider ETYVVVANYQKQESSEISLSVGQVVDIIEKNESGWWFVSTAEEQGWVPATCLEGQ, for which the abundance fitness was -0.148 ± 0.12.

On to ECYVVVANYQKQESSEISLSVGQVVDIIEKNESGWWFVSTAEEQGWVPATCLEGQ, for which the abundance fitness is -0.086 ± 0.14.

ESYVVVANYQKQESSEISLSVGQVVDIIEKNESGWWFVSTAEEQGWVPATCLEGQ: the abundance fitness was -0.058 ± 0.11.

With EAYVVVANYQKQESSEISLSVGQVVDIIEKNESGWWFVSTAEEQGWVPATCLEGQ, the abundance fitness is -0.247 ± 0.11.

Take ELYVVVANYQKQESSEISLSVGQVVDIIEKNESGWWFVSTAEEQGWVPATCLEGQ: the abundance fitness was -0.189 ± 0.087.

Consider ERYVVVANYQKQESSEISLSVGQVVDIIEKNESGWWFVSTAEEQGWVPATCLEGQ, for which the abundance fitness was -0.167 ± 0.12.

Turning to EIYVVVANYQKQESSEISLSVGQVVDIIEKNESGWWFVSTAEEQGWVPATCLEGQ, the abundance fitness is -0.347 ± 0.29.

Regarding EKYVVVANYQKQESSEISLSVGQVVDIIEKNESGWWFVSTAEEQGWVPATCLEGQ, the abundance fitness was -0.062 ± 0.16.

On to EVYVVVANYQKQESSEISLSVGQVVDIIEKNESGWWFVSTAEEQGWVPATCLEGQ, for which the abundance fitness stood at 0.012 ± 0.11.

As to EEYVVVANYQKQESSEISLSVGQVVDIIEKNESGWWFVSTAEEQGWVPATCLEGQ, the abundance fitness was -0.328 ± 0.37.

Take EWYVVVANYQKQESSEISLSVGQVVDIIEKNESGWWFVSTAEEQGWVPATCLEGQ: the abundance fitness is -0.415 ± 0.1.

Regarding EGYVVVANYQKQESSEISLSVGQVVDIIEKNESGWWFVSTAEEQGWVPATCLEGQ, the abundance fitness is -0.082 ± 0.081.

As for EDYVVVANYQKQESSEISLSVGQVVDIIEKNESGWWFVSTAEEQGWVPATCLEGQ, the abundance fitness is -0.378 ± 0.18.

As for EQYMVVANYQKQESSEISLSVGQVVDIIEKNESGWWFVSTAEEQGWVPATCLEGQ, the abundance fitness was -0.463 ± 0.26.

As for EQYAVVANYQKQESSEISLSVGQVVDIIEKNESGWWFVSTAEEQGWVPATCLEGQ, the abundance fitness was -0.047 ± 0.082.

For EQYRVVANYQKQESSEISLSVGQVVDIIEKNESGWWFVSTAEEQGWVPATCLEGQ, the abundance fitness was 0.077 ± 0.096.

As for EQYGVVANYQKQESSEISLSVGQVVDIIEKNESGWWFVSTAEEQGWVPATCLEGQ, the abundance fitness is -0.265 ± 0.076.

Take EQYQVVANYQKQESSEISLSVGQVVDIIEKNESGWWFVSTAEEQGWVPATCLEGQ: the abundance fitness is -0.018 ± 0.15.

On to EQYYVVANYQKQESSEISLSVGQVVDIIEKNESGWWFVSTAEEQGWVPATCLEGQ, for which the abundance fitness is 0.046 ± 0.21.

Regarding EQYLVVANYQKQESSEISLSVGQVVDIIEKNESGWWFVSTAEEQGWVPATCLEGQ, the abundance fitness was 0.075 ± 0.065.

As to EQYFVVANYQKQESSEISLSVGQVVDIIEKNESGWWFVSTAEEQGWVPATCLEGQ, the abundance fitness was -0.061 ± 0.1.

As for EQYWVVANYQKQESSEISLSVGQVVDIIEKNESGWWFVSTAEEQGWVPATCLEGQ, the abundance fitness is -0.271 ± 0.12.

Turning to EQYIVVANYQKQESSEISLSVGQVVDIIEKNESGWWFVSTAEEQGWVPATCLEGQ, the abundance fitness turned out to be 0.082 ± 0.13.

In the case of EQYEVVANYQKQESSEISLSVGQVVDIIEKNESGWWFVSTAEEQGWVPATCLEGQ, the abundance fitness worked out at 0.003 ± 0.099.

For the variant EQYHVVANYQKQESSEISLSVGQVVDIIEKNESGWWFVSTAEEQGWVPATCLEGQ, the abundance fitness was -0.308 ± 0.15.

With EQYDVVANYQKQESSEISLSVGQVVDIIEKNESGWWFVSTAEEQGWVPATCLEGQ, the abundance fitness is -0.148 ± 0.1.

For the variant EQYTVVANYQKQESSEISLSVGQVVDIIEKNESGWWFVSTAEEQGWVPATCLEGQ, the abundance fitness turned out to be 0.193 ± 0.18.

On to EQYCVVANYQKQESSEISLSVGQVVDIIEKNESGWWFVSTAEEQGWVPATCLEGQ, for which the abundance fitness is -0.01 ± 0.13.

Regarding EQYSVVANYQKQESSEISLSVGQVVDIIEKNESGWWFVSTAEEQGWVPATCLEGQ, the abundance fitness is 0.083 ± 0.088.

On to EQYNVVANYQKQESSEISLSVGQVVDIIEKNESGWWFVSTAEEQGWVPATCLEGQ, for which the abundance fitness is -0.139 ± 0.14.

The values above are taken from the Human Domainome abundance scans (Beltran et al. 2025).
